Among the data in patent publication US20210371538A1 (Genmab, published 2021) are Kd values, retold here.

The target of the experiment is T1, CD20 (human, UniProt P11836 1-297, limits assumed).
T1 construct: The KD sentence says only 'CD20'; also called human CD20; B-cell antigen CD20
T1 sequence (looked up): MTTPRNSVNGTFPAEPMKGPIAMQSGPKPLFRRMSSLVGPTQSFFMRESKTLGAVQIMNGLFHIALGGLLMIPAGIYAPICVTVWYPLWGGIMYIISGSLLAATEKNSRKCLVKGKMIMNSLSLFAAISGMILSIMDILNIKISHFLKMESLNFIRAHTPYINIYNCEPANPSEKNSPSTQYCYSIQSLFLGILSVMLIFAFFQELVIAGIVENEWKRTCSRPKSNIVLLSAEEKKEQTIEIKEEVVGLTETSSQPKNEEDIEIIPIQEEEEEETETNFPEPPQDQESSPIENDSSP
Nature of the experiment: in vitro measurement, method not stated; used as a PK/PD model parameter.

B1: DuoBody-CD3×CD20 (bispecific antibody, human IgG1, kappa, lambda)
heavy 1: not shown
light 1: not shown
heavy 2: EVQLVESGGGLVQPDRSLRLSCAASGFTFHDYAMHWVRQAPGKGLEWVSTISWNSGTIGYADSVKGRFTISRDNAKNSLYLQMNSLRAEDTALYYCAKDIQYGNYYYGMDVWGQGTTVTVSSASTKGPSVFPLAPSSKSTSGGTAALGCLVKDYFPEPVTVSWNSGALTSGVHTFPAVLQSSGLYSLSSVVTVPSSSLGTQTYICNVNHKPSNTKVDKRVEPKSCDKTHTCPPCPAPEFEGGPSVFLFPPKPKDTLMISRTPEVTCVVVAVSHEDPEVKFNWYVDGVEVHNAKTKPREEQYNSTYRVVSVLTVLHQDWLNGKEYKCKVSNKALPAPIEKTISKAKGQPREPQVYTLPPSREEMTKNQVSLTCLVKGFYPSDIAVEWESNGQPENNYKTTPPVLDSDGSFFLYSRLTVDKSRWQQGNVFSCSVMHEALHNHYTQKSLSLSPG
light 2: not shown
notes: Full-length IgG1 bispecific with an inert Fc (L234F, L235E, D265A), made by controlled Fab-arm exchange of IgG1-CD3-FEAL and IgG1-CD20-FEAR; One heavy/light pair for each arm; also called epcoritamab; GEN3013
The Kd is the free concentration of one partner at which half of the binding sites on the other are occupied at equilibrium, for simple one-to-one binding. Low readings indicate tighter binding, high ones weaker binding. On to B1, for which the Kd amounted to 5.4 nM.
